The results in this text go back to patent US20230049752A1 (University of California, published 2023).

The target of assay [1] is CLDN3/4 (endogenous on LS513 or MCF7 cells). The assay can be described thus: FACS titration of labelled mAb on LS513 cells (endogenous CLDN3/4+).
For assay [2], the target named is human Claudin-6 (CLDN6) (human) (UniProt P56747). Description: FACS titration of labelled mAb on OVCA429 cells (endogenous CLDN6+).
The next assay has as its target T1, Claudin-9 (CLDN9) (human, UniProt O95484 1-217).
T1 construct: whole, on cells; also called CLDN9-GFP; CLDN9-mGFP
T1 sequence (looked up): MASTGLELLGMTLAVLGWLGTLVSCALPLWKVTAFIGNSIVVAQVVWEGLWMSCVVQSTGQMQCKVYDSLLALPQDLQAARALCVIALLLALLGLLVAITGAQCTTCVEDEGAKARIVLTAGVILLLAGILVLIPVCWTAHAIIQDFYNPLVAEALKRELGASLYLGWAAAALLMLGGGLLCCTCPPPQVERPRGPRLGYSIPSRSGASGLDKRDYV
Description: FACS titration of labelled mAb on HEK293T CLDN9-mGFP cells. The method, then:
(§1) CLDN6 antibodies were tested from 0.32 nM to 1000 nM (serial dilution 1:5, 6 points) in a 50 μl volume with 150,000 cells system.
(§2) CLDN6-expressing cells were used in FACS assays to determine the CLDN6 antibody's ability to bind to CLDN6 on the surface of cells and to cross-react with other CLDN family members. HEK293 T cells engineered to express human CLDN6 fused to GFP, mouse CLDN6 fused to GFP, CLDN9-GFP, CLDN4-GFP, or CLDN3-GFP, or GFP alone (without CLDN6) were used as artificial models of CLDN6 expression.
(§3) For each type of cell tested and for each mAb, cells were detached from the surface of the culture flasks by EDTA (instead of trypsin) in order to protect the cell surface proteins. The detached cells were then incubated with Alexa Fluor®-labeled CLDN6 mAbs for 30 min in the dark on ice at a pre-determined concentration. […] After washing, the cells were read by a BD Accuri™ Flow Cytometer C6 to detect antibody-antigen protein binding in channel FL4H. Each antibody was tested at varied concentrations to establish a dose-fluorescence curve. […] Cross-reactivity data were obtained using a similar methodology, but with cells having a different expression profile for CLDN6, CLDN3, CLDN4 and CLDN9.

The target of assay [3] is human Claudin-6 (CLDN6) (human) (UniProt P56747). The assay can be described thus: FACS titration of labelled mAb on ARK2 cells (endogenous CLDN6+).
In assay [4] the target is CLDN3/4 (endogenous on LS513 or MCF7 cells). The assay can be described thus: FACS titration of labelled mAb on MCF7 cells (endogenous CLDN3/4+).
For assay [5], the target named is human Claudin-6 (CLDN6) (human) (UniProt P56747). The assay can be described thus: FACS titration of labelled mAb on HEK293T-CLDN6-mGFP cells.
The target of assay [6] is T2, mouse Claudin-6 (CLDN6) (mouse, UniProt Q9Z262 1-219).
T2 construct: whole, on cells; GFP fusion on engineered HEK293T cells; also called Mouse CLDN6; murine CLDN6
T2 sequence (looked up): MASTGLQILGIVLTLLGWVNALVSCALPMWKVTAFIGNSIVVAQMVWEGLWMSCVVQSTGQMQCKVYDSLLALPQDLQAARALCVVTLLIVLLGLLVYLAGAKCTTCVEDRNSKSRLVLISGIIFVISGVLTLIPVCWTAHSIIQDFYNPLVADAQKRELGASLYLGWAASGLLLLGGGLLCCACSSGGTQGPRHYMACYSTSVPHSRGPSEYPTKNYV
Description: FACS titration of labelled mAb on HEK293T mouse CLDN6-mGFP cells. How it is done: as §1, §2, §3

For assay [7], the target named is human Claudin-6 (CLDN6) (human) (UniProt P56747). Description: FACS, 1.5 ug Ab, ARK2 cells (2nd Ab only 1351.21).
The target is the same in assay [8]. Description: FACS, 0.3 ug Ab, 293T clone expressing human CLDN6 (2nd Ab only 768.07).
The target of assay [9] is T2, mouse Claudin-6 (CLDN6). Description: FACS, 293T clone expressing mouse CLDN6, dose not stated (2nd Ab only 1061.72). The method, then: Two doses (1.5 μg or 0.3 μg) of the humanized antibodies were tested for binding to either human CLDN6 or murine CLDN6 which proteins were expressed by engineered 293T clones.
(In general: In flow cytometry, cells or beads pass a laser one at a time.)

In assay [10] the target is human Claudin-6 (CLDN6) (human) (UniProt P56747). Description: FACS, 0.3 ug Ab, ARK2 cells (2nd Ab only 1351.21).
The target is the same in assay [11]. Description: FACS, 1.5 ug Ab, 293T clone expressing human CLDN6 (2nd Ab only 768.07).
For assay [12] the target is unchanged. The assay can be described thus: FACS, 1.5 ug Ab, OVCA429 cells (2nd Ab only 885.77).

B1: AB10 (antibody, V domains shown)
VH: QIQLVQSGPALKKPGETVKISCKASGYTFTDYSMHWIKQAPGKGLKWMGWISTETGEPTYADGFKGRFDFSLETSADTAYLSINNLTNEDTATYFCTRGLWSSFAYWGQGTLVTVSA
VL: DVVMTQTPLSLPVSLGDQASISCRASQSLVHSNGNTYLHWFLQKPGQSPKLLIYKVSNRFSGVPDRFSGSGSRTDFTLKISRVEAEDLGVYFCSQITHVPYTFGGGTKLEIK
notes: full-length IgG (ExpiCHO)
For B1, the EC50 in assay [1] was 1.95 µM; in assay [2], 2.47 µM; with Claudin-9 (CLDN9), 0.246 µM; in assay [3] it was 2.14 µM; in assay [4] it was 5 µM; in assay [5], 2.76 µM.

B2: AB17 (antibody, V domains shown)
VH: QVQLQQSGAELAKPGASVKMSCKASGYTFTGYWMHWVKQRPGQGLEWLGYINPSTGYTESNQKFKDKATLTADKSSTTAYMQLRSLTPEDSAVYYCAREGITTVLVDYWGQGTTLTVSS
VL: QIVLTQSPAIMSASLGERVTMTCTASSSVSSSYLHWYQQKPGSSPKLWIYSTSNLASGVPARFSGSGSGTSYSLTISSMEAEDAATYYCHQYHRSPPTFGAGTKLELK
Consider B2, for which the EC50 in assay [1] was found to be 5 µM; in assay [2] it was 5 µM; in [3] it was 5 µM; in assay [4], 5 µM; in assay [5] it was 2.65 µM.

B3: AB13 (antibody, V domains shown)
VH: QVQLQQSGAELVRPGTSVKVSCKASGYAFSNYLIEWVKQRPGQGLEWIGVINPGSGGTNYNEKFKGKATMTADKSSSTAYMHLSNLTSEDSVVYFCARSYFGRSYPYTMDYWGQGTSVTVSS
VL: EIVLTQSPTTMAASPGEKITITCSASSSISSNYLHWYQQKPGFSPKLLIYRTSNLASGVPARFSGSGSGTSYSLTIGTMEAEDVATYYCQQGSSIPLTFGAGTKLELK
Take B3: the EC50 in [1] worked out at 1.59 µM; in assay [2] it was 2.29 µM; in assay [3], 1.15 µM; in assay [4] it was 5 µM; in [5] it was 5 µM.

B4: AB2 (antibody, V domains shown)
VH: EVKLEESGGGLVQPGGSMKLSCVASGFTFSDYWMNWVRQSPEKGLEWVAQIRLKSDNYATHYAESVKGRFTISRDDSKRSVYLQMNNLRAEDTGTYYCNDGPPSGCWGQGTTLIVSS
VL: DIQMTQSPASLSASVGETVTITCRISENIYSYLAWYQQKQGKSPQLLVYNAKILVEGVPSRFSGSGSGTQFSLKINSLQPEDFGNYYCQHHYTVPWTFGGGTKLEIK
notes: full-length IgG (ExpiCHO)
On to B4, for which the EC50 in assay [1] is 5 µM; in [2] it was 0.912 µM; with mouse Claudin-6 (CLDN6) [6], ≥ 5 µM; in assay [3], 1.36 µM; in assay [4], 5 µM; in [5], 0.182 µM.

B5: AB3 (antibody, V domains shown)
VH: EVKLEESGGGLVQPGGSMKLSCVASGFTFSNYWMNWVRQSPEKGLEWVAQIRLKSDNYATHYAESVKGRFTISRDDSKRSVYLQMNNLRAEDTGTYYCNDGPPSGCWGQGTTLIVSS
VL: DIQMTQSPASLSASVGETVTITCRISENIYSYLAWYQQKQGKSPQLLVYNAKILVEGVPSRFSGSGSGTQFSLKINSLQPEDFGNYYCQHHYTVPWTFGGGTKLEIK
notes: full-length IgG (ExpiCHO)
Consider B5, for which the EC50 in assay [1] came out at 5 µM; in assay [2], 1.1 µM; in the assay with mouse Claudin-6 (CLDN6) [6] it was 2.49 µM; in assay [3], 1.65 µM; in assay [4] it was 5 µM; in assay [5], 0.604 µM.

B6: AB9 (antibody, V domains shown)
VH: EVQLQQSGPELVKPGASVKMSCKASGYRFTDYNMHWVKQSHGKSLEWIGYINPNNGGTNYNQNFKGKATLTVNKSSSTAYMELRSLTSEDSAAYYCARDYLYFFDCWGQGTTLTVSS
VL: DIQMTQSPASQSASLGESVTITCLASQTIGTWLAWYQQKPGKSPQLLIYAAASLADGVPSRFSGSGSGTRFSFKISSLQAEDFVSYYCQQLYSIPRTFGGGTKLEIK
Consider B6, for which the EC50 turned out to be 1.04 µM in assay [1]; 1.17 µM in assay [2]; 1.14 µM in [3]; 5 µM in assay [4]; 2.67 µM in [5].

B7: AB1-6 (antibody, V domains shown)
VH: QVQLVQSGAEVKKPGASVKMSCKASGYTFTTYTMHWVRQAPGQGLEWIGFINPSSGYTDYAQKFQGRVTLTADTSTSTVYMELSSLRSEDTAVYYCANGDYYVAYWGQGTLVTVSS
VL: DIQMTQSPSSLSASVGDRVTITCTASSSVSSTYFHWYQQKPGKAPKLLIYSTSNLASGVPSRFSGSGSGTDYTLTISSLQPEDFATYYCHQYHRSPLTFGQGTKLEIK
notes: humanized
Turning to B7, the EC50 in [1], in assay [2], in [3], in assay [4] and in assay [5] was 5 µM in each case. Further, the FACS fluorescence in assay [7] worked out at 7740; in [8], 120000; in the assay with mouse Claudin-6 (CLDN6) [9], 77600; in assay [10], 2820; in assay [11], 227000; in assay [12], 29900.

B8: AB14 (antibody, V domains shown)
VH: QVQLQQSGPELVRPGVSVKISCKGSGYTFTDYAMHWVKQSHAKSLEWIGVISTYSGNTNYNQKFQDKATMTVDKSSSTAYMALARLTSDDSAIYYCARRGDYSLYAMDYWGQGTSVTVSS
VL: DIVLTQSPASLAVSLGQRATISCKASQSVDYDGDNYVNWYQQKVGQPPKLLISAASNLESGIPARFSGSGSGTDFTLNIHPVEEEDAATYYCQQSNEDPFTFGSGTKLEIK
As for B8, the EC50 in assay [1] was 1.16 µM; in assay [2] it was 1.66 µM; in assay [3], 1.3 µM; in [4], 0.546 µM; in [5], 5 µM.

B9: AB18 (antibody, V domains shown)
VH: QVQLKQSGPELEKPGASVKISCKASGYSFTGYNMNWVKQSNGKSLEWIGNIDPYYGGSTYNQKFTGKATLTVDKSSSTAYMQLKSLTSEDSAVYYCARERSGYVFSAMDYWGQGTSVTVSS
VL: NIMMTQSPSSLAVSAGEKVTMSCKSSQSVLFSSNQKNYLAWYQQKPGQSPRLLIYWASTRESGVPDRFTGSGSGTDFTLTISNVQAEDLAVYYCHQYLSSRTFGAGTKLELK
Turning to B9, the EC50 in assay [1] came to 5 µM; in assay [2], 2.44 µM; in [3] it was 1.35 µM; in assay [4], 5 µM; in assay [5], 5 µM.

B10: AB19 (antibody, V domains shown)
VH: EVQLQQSGPELVKPGGSMKISCKASGYSFTGYTMNWVKRSHGKNLEWIGLINPYNGVTTYNQNFKGKATLAVDKSSSTAYMELLGLTSEDSAVYYCTRDPLYYGYRDSTMDYWGQGTSVTVSS
VL: NIMMTQSPSSLAVSAGEKVTMSCKSSQSVLFSSNQKNYLAWYQQKPGQSPRLLIYWASTRESGVPDRFTGSGSGTDFTLTISNVQAEDLAVYYCHQYLSSRTFGAGTKLELK
For B10, the EC50 in assay [1], in assay [2], in assay [3], in [4] and in assay [5] was 5 µM throughout.

In general, EC50 refers to the concentration giving half of the maximal effect. Read a low EC50 as an effect from little substance.
